The values that follow are results of earlier work, collected in patent publication US5419315A, “Intrapulmonary delivery of hormones” (Aradigm Corporation, priority 1994, dated 1995).

The conditions of the first data set: in vivo.
With LHRH, the “Bioavailability (%)” value is 1.5%. `CC(C)C[C@H](NC(=O)[C@@H](Cc1ccc2ccccc2c1)NC(=O)[C@H](Cc1ccc(O)cc1)NC(=O)[C@H](CO)NC(=O)[C@H](Cc1c[nH]c2ccccc12)NC(=O)[C@H](Cc1c[nH]cn1)NC(=O)[C@@H]1CCC(=O)N1)C(=O)N[C@@H](CCCNC(=N)N)C(=O)N1CCC[C@H]1C(=O)NCC(N)=O` [Nafarelin]: the “Bioavailability (%)” value was 2%.

With `NC(=O)CC[C@@H]1NC(=O)[C@H](Cc2ccccc2)NC(=O)[C@H](Cc2ccc(O)cc2)NC(=O)CCSSC[C@@H](C(=O)N2CCC[C@H]2C(=O)N[C@H](CCCN=C(N)N)C(=O)NCC(N)=O)NC(=O)[C@H](CC(N)=O)NC1=O` [Desmopressin], the “Bioavailability (%)” value was 10%. Turning to `CCNC(=O)[C@@H]1CCCN1C(=O)[C@H](CCCNC(=N)N)NC(=O)[C@H](CC(C)C)NC(=O)[C@@H](CC(C)C)NC(=O)[C@H](Cc1ccc(O)cc1)NC(=O)[C@H](CO)NC(=O)[C@H](Cc1c[nH]c2ccccc12)NC(=O)[C@H](Cc1c[nH]cn1)NC(=O)[C@@H]1CCC(=O)N1` [Leuprolide], the “Bioavailability (%)” value is listed as under 10% and the “bioavailability when administered intranasally” value was “relatively low”. Consider Secretin, for which the “Bioavailability (%)” value is reported as 10%.

Staying with this data set, now noted: intranasal (nasal delivery).
Take Calcitonin: the “Bioavailability (%)” value is under 1%. With “GHRH (YADAIFTNSYRKVLGQLSARKLLQDIMSRQQGESNQERGA; Somatoliberin; UniProt P01286 32-71, looked up, fragment)”, the “Bioavailability (%)” value is reported as under 1%.

Glucagon: the “Bioavailability (%)” value is under 1%. With Growth hormone, the “Bioavailability (%)” value is listed as under 1%. `C[C@H](N)C(=O)NCC(=O)N[C@H]1CSSC[C@@H](C(=O)O)NC(=O)[C@H](CO)NC(=O)[C@H]([C@@H](C)O)NC(=O)[C@H](Cc2ccccc2)NC(=O)[C@H]([C@@H](C)O)NC(=O)[C@H](CCCCN)NC(=O)[C@H](Cc2c[nH]c3ccccc23)NC(=O)[C@H](Cc2ccccc2)NC(=O)[C@H](Cc2ccccc2)NC(=O)[C@H](CC(N)=O)NC(=O)[C@H](CCCCN)NC1=O` [Somatostatin]: the “Bioavailability (%)” value is given as 75%.

As to `CC[C@H](C)[C@@H]1NC(=O)[C@H](Cc2ccc(O)cc2)NC(=O)[C@@H](N)CSSC[C@@H](C(=O)N2CCC[C@H]2C(=O)N[C@@H](CC(C)C)C(=O)NCC(N)=O)NC(=O)[C@H](CC(N)=O)NC(=O)[C@H](CCC(N)=O)NC1=O` [Oxytocin], the “Bioavailability (%)” value was 1%.
